Results as given in paper PMC8117407.

Molecular target: mXFP-TpoR (thrombopoietin receptor N-terminally fused to nonfluorescent mEGFP Tyr66Phe) (UniProt P40238)
Assay: live-cell micropatterning with FRAP

fold reduction of binding stability against JAK2 FS wt: 20 fold
Substance: JAK2 FS L224E (domain or fragment)
